{"source": "paper PMC3500698", "about": "(Science signaling, 2012)", "key": {"JNK1, p38α and ERK2": {"test_system": "JNK1, p38α and ERK2", "assay": "MAPK interaction profile from FP binding affinities", "set-up": "species or system human", "conditions": "from FP binding affinities to JNK1, p38α and ERK2"}, "p38α (human)": {"target": "p38α (human) (UniProt Q16539)", "sequence (Q16539 whole entry)": "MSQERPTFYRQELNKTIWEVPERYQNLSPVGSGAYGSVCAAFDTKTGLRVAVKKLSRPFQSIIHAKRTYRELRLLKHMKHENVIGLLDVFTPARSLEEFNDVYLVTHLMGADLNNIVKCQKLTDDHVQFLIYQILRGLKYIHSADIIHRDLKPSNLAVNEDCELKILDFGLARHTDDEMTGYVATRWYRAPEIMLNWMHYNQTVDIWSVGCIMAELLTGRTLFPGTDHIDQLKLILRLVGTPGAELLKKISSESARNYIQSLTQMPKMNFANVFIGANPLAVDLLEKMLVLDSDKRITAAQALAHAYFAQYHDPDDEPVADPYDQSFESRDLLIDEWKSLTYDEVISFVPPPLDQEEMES", "assay": "fluorescence polarisation"}, "[1]": {"target": "extracellular signal-regulated kinase 2 (ERK2) (human) (UniProt P28482)", "sequence (P28482 whole entry)": "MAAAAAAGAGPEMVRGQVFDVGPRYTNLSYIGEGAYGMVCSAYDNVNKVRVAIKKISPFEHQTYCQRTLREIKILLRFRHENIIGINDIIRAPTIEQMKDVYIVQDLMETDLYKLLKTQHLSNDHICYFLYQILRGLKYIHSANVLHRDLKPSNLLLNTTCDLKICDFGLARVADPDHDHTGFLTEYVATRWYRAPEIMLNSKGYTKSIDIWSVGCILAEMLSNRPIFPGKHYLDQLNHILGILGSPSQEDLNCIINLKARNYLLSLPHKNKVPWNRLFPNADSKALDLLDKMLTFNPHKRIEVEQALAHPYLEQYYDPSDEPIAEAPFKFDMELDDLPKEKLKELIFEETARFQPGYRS", "assay": "fluorescence polarisation"}, "p38α": {"target": "p38α (human, UniProt Q16539 1-360)", "sequence (Q16539 whole entry)": "as the sequence (Q16539 whole entry) above", "assay": "fluorescence polarisation"}, "[2]": {"target": "extracellular signal-regulated kinase 2 (ERK2) (human, UniProt P28482)", "sequence (P28482 whole entry)": "as the sequence (P28482 whole entry) above", "assay": "fluorescence polarisation"}}}
{"molecule": "LERPSRDHLYLPLE [pepNFAT4]", "values": [{"measurement": "MAPK binding profile (in words)", "setting": "JNK1, p38α and ERK2", "result": "bound JNK1 exclusively"}, {"measurement": "MAPK binding profile (in words)", "setting": "JNK1, p38α and ERK2; listed as NFAT4", "result": "JNK-specific"}]}
{"molecule": "pepMK2 (C-terminal MAPK docking peptide of MK2)", "values": [{"measurement": "fold preference for the cognate MAPK (p38α against ERK2)", "setting": "p38α (human)", "result": 400, "unit": "fold"}]}
{"molecule": "pepRSK1 (C-terminal MAPK docking peptide of RSK1)", "values": [{"measurement": "fold preference for the cognate MAPK (ERK2 against p38α)", "setting": "[1]", "result": 20, "unit": "fold"}]}
{"molecule": "LSLSSLAASSLAKRRQQ (designed binder)", "note": "[pepSynth-revD (artificially designed revD-motif peptide)]", "values": [{"measurement": "Kd", "setting": "p38α", "result": "~30", "unit": "µM"}, {"measurement": "Kd", "setting": "[2]", "result": "~10", "unit": "µM"}]}
